Laboratory results: patent publication KR20150068913A

Biological target: 광견병 바이러스 CVS-11의 야생형 G 단백질 (rabies virus CVS-11) (UniProt O92284)
Experiment: cell-based or functional assay

UniProt O92284, sequence (O92284 20-524 limits assumed): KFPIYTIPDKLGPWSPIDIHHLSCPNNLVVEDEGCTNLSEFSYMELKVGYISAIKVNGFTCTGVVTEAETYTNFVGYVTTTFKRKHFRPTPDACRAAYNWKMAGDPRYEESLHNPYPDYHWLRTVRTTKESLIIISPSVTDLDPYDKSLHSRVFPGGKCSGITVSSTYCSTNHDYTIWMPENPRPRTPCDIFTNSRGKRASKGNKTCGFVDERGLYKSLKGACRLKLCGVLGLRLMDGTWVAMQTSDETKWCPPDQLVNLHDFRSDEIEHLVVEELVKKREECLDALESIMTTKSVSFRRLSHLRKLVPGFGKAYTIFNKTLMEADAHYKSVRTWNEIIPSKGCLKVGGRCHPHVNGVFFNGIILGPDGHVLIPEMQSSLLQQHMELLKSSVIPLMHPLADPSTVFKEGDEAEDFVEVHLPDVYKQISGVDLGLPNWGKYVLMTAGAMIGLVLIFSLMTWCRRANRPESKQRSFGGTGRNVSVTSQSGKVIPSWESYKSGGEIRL

B1: 이 건 항체 2 (antibody, V domains shown)
VH: EVQLVESGAEVKKPGASVKVSCKASGYTFTSYDVSWVRQAPGQGLEWMGWISAYRGNTKYAQKFQGRVTMTTDTSTSTAYMELRSLRSDDTAVYYCARAKSHPYYDFWSGYYVPGAFDIWGQGTMVTVSS
VL: ELQMTQSPSSLSASVGDRVTITCQASQDISNYLTWYQQKPGKAPKLLIYDASNLETGVPSRFSGSGSGTDFTFTISSLQPEDIATYYCQQYDNLPPTFGGGTKVEIKR
  RFFIT IU/mL, CVS-11: 1.59 IU/mL
  RFFIT IU/mg, CVS-11 (중화능력): 7940 IU/mg
  RFFIT Titer, CVS-11: 270
